Here are results for one protein from PMC5982138, “Disruption of the GDP-mannose synthesis pathway in Streptomyces coelicolor results in antibiotic hyper-susceptible phenotypes” (Microbiology, 2018).

Substrate in this series: O=P(O)(O)O[C@H]1O[C@H](CO)[C@@H](O)[C@H](O)[C@@H]1O
The series is described as follows: purified protein. It is filed as biochemical, Streptomyces coelicolor. Conditions: GTP as co-substrate; cooperative (Hill fit).

B1: SCO4238 (Streptomyces coelicolor A3(2)) (protein)
chain: MTDPNAASRRPVQAVVLAGGQGSRLRPYTDDRPKPMVEIPGTGTPIIGHQLAWLAEEGVTDVVVSCGHLAEVLQKWLESADLPLSVTTVVETEPLGRGGGLRYAAAHLPHPDRSWYATNGDIWTRFSLRDMADFHAERDAVATLALARPRLPWGAVQTDGFGHITDFIEAPPSTFEINAGVYVFSPEFAAMLPERGDHERTTFPRLAREHRLAGFPIPQGSYWRAIDTAKDLTEAARELAALSGR
For the protein B1, the Km amounted to 180 ± 30 µM.
